Test results: PMC11756389

Assays:
[1] = biological target: two N-terminal domains (D1D2) of LILRB2 with a C-terminal biotinylation tag, biotinylated (human); experiment: SPR
[2] = biological target: T1, paired immunoglobulin-like receptor B (PIR-B), C-terminal biotinylated (mouse), P97484; experiment: SPR
T1 chain: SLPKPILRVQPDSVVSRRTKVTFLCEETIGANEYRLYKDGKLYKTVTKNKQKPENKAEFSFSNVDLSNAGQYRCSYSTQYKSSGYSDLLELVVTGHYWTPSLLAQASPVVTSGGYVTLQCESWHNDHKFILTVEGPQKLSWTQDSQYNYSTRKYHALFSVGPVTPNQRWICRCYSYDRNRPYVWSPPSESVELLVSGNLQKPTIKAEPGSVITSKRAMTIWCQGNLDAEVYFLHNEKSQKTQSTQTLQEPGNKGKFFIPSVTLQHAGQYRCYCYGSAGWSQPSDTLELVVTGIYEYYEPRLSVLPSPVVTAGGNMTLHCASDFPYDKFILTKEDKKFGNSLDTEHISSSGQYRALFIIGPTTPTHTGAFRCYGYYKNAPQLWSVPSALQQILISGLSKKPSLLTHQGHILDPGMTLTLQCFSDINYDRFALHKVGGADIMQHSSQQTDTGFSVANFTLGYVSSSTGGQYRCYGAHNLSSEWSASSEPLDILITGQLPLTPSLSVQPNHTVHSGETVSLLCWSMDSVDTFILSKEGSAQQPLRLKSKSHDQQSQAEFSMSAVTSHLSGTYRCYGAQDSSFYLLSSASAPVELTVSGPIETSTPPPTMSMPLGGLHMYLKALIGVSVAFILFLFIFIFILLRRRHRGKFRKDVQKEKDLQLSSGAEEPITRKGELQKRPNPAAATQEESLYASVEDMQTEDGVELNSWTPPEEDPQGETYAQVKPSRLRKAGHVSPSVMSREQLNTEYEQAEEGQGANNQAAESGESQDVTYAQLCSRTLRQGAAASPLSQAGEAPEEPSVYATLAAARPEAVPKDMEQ

Kd [1]: 0.041 to 0.064 pM | specific binding response at 6.2 μM [2]: 100 RU
B1: soluble HLA-G2 homodimer (non-PEGylated) (domain or fragment)
chain: GSHSMRYFSAAVSRPGRGEPRFIAMGYVDDTQFVRFDSDSACPRMEPRAPWVEQEGPEYWEEETRNTKAHAQTDRMNLQTLRGYYNQSEANPPKTHVTHHPVFDYEATLRCWALGFYPAEIILTWQRDGEDQTQDVELVETRPAGDGTFQKWAAVVVPSGEEQRYTCHVQHEGLPEPLMLRW
modifications: not checked
